Results reported in article doi:10.1101/2025.11.15.688601, “A multiplexed approach for genetic screening of human cells by electron microscopy uncovers a critical effector of mitochondrial cristae shape” (bioRxiv, 2025).

Biological target: the molecule itself
Experiment: SEC-MALS; about 10 mg/ml applied to Superdex 200 Increase 10/300 in PBS; DAWN HELEOS and Optilab T-rEX detectors

B1: Recombinant MISHA/FAM136A (sample of the SEC-MALS analysis) (natural protein)
chain: not shown
notes: human FAM136A/MISHA, Uniprot Q96C01, printed as 138 amino acids (the whole entry); tag removed before the assay; Applied at about 10 mg/ml; also called Mitochondrial-IMS membrane-SHApe-impacting protein; source: E. coli SHuffle, purified; tag cleaved in both
stoichiometry N: 2
